Reference: the DeepSol protein solubility set

test: soluble on expression in E. coli; label from the status in PepcDB or PDB records

| Sequence | soluble on expression in E. coli |
| --- | --- |
| MGSDKIHHHHHHMRDQADRLREMALNLKQEIEAEIRRDLRYSRVVVISSGKGGVGKSTLALNLSLNLCARGMKIILMDADMGLANLDVMLGLVTKFNIYHIVQQKKSMEEITISGPEGLKIIPGGSGISELANLENTELKRILVELRKLDGAYDYMIIDTGAGISKSVMNFLLAAEDIIVITTPEPTAITDAYSLVKNVAKNSFAGSIYLVVNKVANDSEGILVAEKFKLVCQKFLSCEIKPLGHIVNEPLIGEGIRRQKAFVQIYPRSTATRNINTIVDRLIEASGQKSPGLESKRGGIRYFIEKIAGLVK | not soluble |
| MDVPTAISIERVVKEMKSLEITLHITPTGPSVGFANINGFNFQFIVLPSVLIARADRYLSETKSDPRIYLASNEVNNRTVRGGIFVVDNSAAPIMRAEVDICSAAGLTDSQLHMCLSNSVNDVLDLQHSWAKATAI | not soluble |
| LLTAAYAAKEHLIMTTPYFVPSDDLLHAICTAAQRGVDVSIILPRKNDSLLVGWASRAFFTELLAAGVKIYQFEGGLLHTKSVLVDGELSLVGTVNLDMRSLWLNFEITLVIDDAGFGSDLAAVQDDYISRSRLLDARLWLKRPLWQRIAERLFYFFSPLL | not soluble |
| MNSTNSGPPDSGSATGVVPTPDEIASLLQVEHLLDQRWPETRIDPSLTRISALMDLLGSPQRSYPSIHIAGTNGKTSVARMVDALVTALHRRTGRTTSPHLQSPVERISIDGKPISPAQYVATYREIEPLVALIDQQSQASAGKGGPAMSKFEVLTAMAFAAFADAPVDVAVVEVGMGGRWDATNVINAPVAVITPISIDHVDYLGADIAGIAGEKAGIITRAPDGSPDTVAVIGRQVPKVMEVLLAESVRADASVAREDSEFAVLRRQIAVGGQVLQLQGLGGVYSDIYLPLHGEHQAHNAVLALASVEAFFGAGAQRQLDGDAVRAGFAAVTSPGRLERMRSAPTVFIDAAHNPAGASALAQTLAHEFDFRFLVGVLSVLGDKDVDGILAALEPVFDSVVVTHNGSPRALDVEALALAAGERFGPDRVRTAENLRDAIDVATSLVDDAAADPDVAGDAFSRTGIVITGSVVTAGAARTLFGRDPQ | soluble |
| MSLNEPDGVLSYQRPDEEAVVDQGGTSTILNIHYEKEELEGHRTLYVGVRMPLGRQSHRHHRTHGQKHRRRGGRGKGASQGEEGLEALAHDTPSQRVQFILGTEEDEEHVPHELFTELDEICMKEGEDAEWKETARWLKFEEDVEDGGERWSKPYVATLSLHSLFELRSCLINGSVLLDMRASSIEEISDLILDQQELLRDLSDSVRVKVREALLKKHHHQNERRRNNLIPIVRSFAEVGKKQSDPHSMDRDGQTVSPQSATNLEVKNGVNCEHSPVDLSKVDLHFMKKIPTGAEASNVLVGEVDTLDRPIVAFVRLSPAVLLSGLTEVPIPTRFLFILLGPVGKGQQYHEIGRSMATIMTDEIFHDVAYKAKERDDLLAGIDEFLDQVTVLPPGEWDPSIRIEPPKNVPSQEKRKMPGVPNGNVCHIEPEPHGGHSGEGHHHHHH | soluble |
| MSLNVVGYVRLSRDEDKENYSSIITQKNIIEEYSKNKNWTVNRIYVDDNCSGYTFERPEFLKMMYEIKERKIDVIVAKDLSRIGRNNGKVLVFIDKLKEKGIRLILVEEATGGLDLLEDNYDILGIKTWYNEMYVKDISRKIRASMHLKQKKGKEGHHHHHH | soluble |
| MKAIISYETPLEQAHFTAKNDEKNMFYKENTEESVEGSLQYDVLDAVGEFKGQPGYIVCNNISVTDEGRPVFENRFKNRAGLIENEPGFQAIRVLRPLSNDTYVILTMWETEQNFKDWTESRSFENAHKKRPVQAEGQAPAHPHAEQQKSIFSRPSFVTTFDVLV | not soluble |
| MTAQTPRPYPSPYGRGNWYADTVTDVPASPPLDGDVAAEVCIIGAGFTGLGAALALGSRAVVLEAGRIGCAASGRNGGQVHTGQRRDQAWLEKTVGRDDALALWRLAEEARAHFASLVTAIDCDWRPGMIHARHKPGGEAEDADYLALMADRYGYDQLELIGETALAHELGTDVYHGGLADHGGGHVHPLKLAQGMAAQARAAGAVIHENTRADAWRREGGKIVVETGGGRVTCDQLILSGDGLLNRMAGPAQARVMPINNFIAVTAPLGALADEIIRSNAAVSDSRFVVNYFRKTPDGRLLFGGGENYRPGFPHDIAGLVRKNLAKIYPRLADVEITHAWGGTLGITFSRMPFVGEVAQGVRVAAGYSGQGVMLAPYVGKLLAEAALGETGPVDLLSRLPTPPFPGGRLLRWPLTVAGLSWYALRDRLLEHHHHHH | not soluble |
| MTEVKAMTKFYDVTFQELSGRSVVKTEVASDREPFDVWQDACASYSETELNIQINEDTFVTLNRHFVVRIDVKEVDGPVDKQVRRRDELMNVVNTLSNMGL | soluble |
| MSLTKSVAIIGAGITGLSSAYFLKQQDPNIDVTIFEASNRPGGKIQSYRKDGYMIELGPESYLGRKTIMTELAKDIGLEQDIVTNTTGQSYIFAKNKLYPIPGGSIMGIPTDIKPFVTTKLISPLGKLRAGLDLIKKPIQMQDGDISVGAFFRARLGNEVLENLIEPLMGGIYGTDIDKLSLMSTFPNFKEKEEAFGSLIKGMKDEKNKRLKQRQLYPGAPKGQFKQFKHGLSSFIEALEQDVKNKGVTIRYNTSVDDIITSQKQYKIVYSNQQEDVFDGVLVTTPHQVFLNWFGQDPAFDYFKTMDSTTVATVVLAFDEKDIENTYDGTGFVIARTSDTDITACTWTSKKWPFTTPEGKVLIRAYVGKPGDTVVDDHTDNELVSIVRRDLSQMMTFKGDPEFTIVNRLPKSMPQYHVGHIQQIRQIQAHIKQTYPRLRVTGASFEAVGLPDCITQGKVAAEEVIAELEGHHHHHH | soluble |
| MKLVICIVQDDDAGELIDVLTDKGLRVTKLATTGGFLKAGNTTLMIGVEEKAVDGVIETIEDVCKTRQQVVTSPSPVAGSTGVYVPYPIDVEVGGATIFVVDVDKFIKI | not soluble |
| QGDLLLAQYTRAYGYYNPAYAGMRKEIFITALHNRQWEGMPRSPKSFVVLADAPIRFFDREHGVGVRVVTETRGLFAINELMGQYAFKQKLFGGDLSVALQAGLVNTAFDGTKVELETENDPAIPLTKVSGKAFDIGAGIYYRRKE | not soluble |
| MNDRLCFEVHDNKGYFVFPDTWFGPLLGEFEEVLDAYDADEISETSYINKLRRLAQREPDFIDIHAHLAYAFLEQNAPRKALNAALKGLAAGNRIIPESFCGEIIWMHPENRPYLRALYAAILANVHLQRHQDAVMLTDKILAYNPEDNQGARWLLGSELLRTGDHERAFSVLKEHADEFSPYWYELGLLHFLNGEHVKAATAFRHGFATNTYIAEMLCGNLHPFPLAVWHDFSGSLDTAEDYYATYSPLWGQYPEALLFVNWLYNHSSVLHERSEIIKCAEMLIQEDDFEICESILRQQEHLWKRIDKTLSEEIVQKCRNMNGEYIWPWILPFSAAGMKHSSIQYQMAGDPLEHHHHHH | soluble |
| MSQWTTVCKLDDILPGTGVCALVEQQQIAVFRPRNDEQVYAISNIDPFAQASVLSRGIVAEHQDDLWVASPLKKQHFRLYDGFCLEDGAYSVAAYDTQVTNGNVQISIADSDVAVDNSQPLPLEHHHHHH | soluble |
| GSHMASTISVKDENGTVKVPKDAKRIVVLEYSFADALAALDVKPVGIADDGKKKRIIKPVREKIGDYTSVGTRKQPNLEEISKLKPDLIIADSSRHKGINKELNKIAPTLSLKSFDGDYKQNINSFKTIAKALNKEKEGEKRLAEHDKLINKYKDEIKFDRNQKVLPAVVAKAGLLAHPNYSYVGQFLNELGFKNALSDDVTKGLSKYLKGPYLQLDTEHLADLNPERMIIMTDHAKKDSAEFKKLQEDATWKKLNAVKNNRVDIVDRDVWARSRGLISSEEMAKELVELSKKEQK | soluble |
| MTYSGLNLNQDKATKPQTVQIVRQGEATLYWFLLIHYRFRRERRETQSLLMTRNTLKFIPFWSYKHITYAIFLYSRLPENSGQEYLTQRKAEKATKNNLHLSRLVSPTLGVQTIQSFRLPLFVYKINF | not soluble |
| GSHMIAPLSVKDNDKWVDTHVGKTTEIHLKGNPTTGYMWTRVGFVGKDVLSDEILEVVCKYTPTPSSTPMVGVGGIYVVLVKPRKRGHHTLELVYTRPFEGIKPENERYTLHLNVK | soluble |
| MSLGNARMYEALRDYGDRFDTVGIFTFEVDETGTITETGTSISSMLPYIQKWPHIKWLLTIMNHGIANIFTALRNNENGAKDKFLTEIIRIMNKYPWCAGVDIDLERGGGYENKDAANALFRDIYNTVKSYDATKLVNICLPGMIGVQGSVGGENWCVYADLNDYCDTAAIMSYGMAWAGSAPGPVSPRDWLEGIYDYAVSVMSPDKIFMGLPAYGWNWRIHDTPENLGITYRGVSNTYYAAKYWMTGVYNFTGDAPPQPFIPIVAYWDDYNKVPWALPHVYDYMEGWDAVSWEYPLLKGVYNRRRYLTSYGKEQKAEFGTIYIDRNGVPDEYEGNVIITDEMTSLGDAQASAEYRFEIREAGYYDIAVQLCFPYWDKNAIIVSLDGISKTFSENRLWWPYWRRVCWLTLAKGVFLQEGTHAISISGGVPGVQFYGFRVCSGFSEYPFAGEASFMLSPRRFKDVNGVMVEPDRGFKLTFEMLRRKPDSALIWYEDFRDRNILPENYWTVLDGEWDVWQDPDSTENRPYSQLEGYGKLAWKYDGFSDIHIRARLAFPQNSSGRAGVFLGDIFCCLNYDTQRVELYQGNSLLGSYSTSFSKTVDADLRANPNMYTIEMRKRGNKVRVYSGAASTLRFTVNVTGGSGYVGYCSDNRTVCELLRLGDAWVYEPYERFDVELPDGNITSFGRLARTGVTWDDEFQVFSVNNDVEESITRSEDISMDYDFFHSQLLALSCGNDYEVKIILKDINIWISRLFLGDADGFSILYYQDVDSLVYWANEAAYRWKLRGIAIWSLGQEDMRLWEALPKQEGHHHHHH | soluble |
| MTEYIQDAIPAKLAIAIANPIFPQLDSQLRAGRHISIEMLDEHAFLMDFQTELESFYRRYHVDLIRAPEGFFYLRPKASTLIARSAMSEMEMLVGKVLCYLYLSPERLAQQGIFSQDDVYEELLNLADENKLLKAVNPRSTGSDLDRAKLAEKVGGALRRLARIGIITRVGEQNSKKFIISEAVFRFGADVRAGDDPREVQLRLIRDGEATTPTLLTTEAIEFAEDGARDELEESEAELEHHHHHH | soluble |
| MGSDKIHHHHHHMNDNAERRYRRPSYRITLDEQDITPRINGRLIRLRLRSQRGLEADQLDLTLSDHDGALALPRRGVSLRVAYGWQDDGLIDKGLFTVDEVQHSGTPDQITIRARSADMRGRLPGKRSRSWHDITVGEIIDTIAKRHTLEPVVGDTVRGIRIGHIDQTEESDLNFLTRLGERFDAVATVKAARLLFTQAGEALTASGLAMPSVTLTRRDGDRHRYSATDRDTYTGVIAYWNDKANAKRQRVIAGSDEDAKELRPTYATEADALDAAKAEWRRVQRGEATFKITLAYGRADILPESPLTASGFKPDIDATPWLVTEVEDSLDDNGFGTRVQCEVRGGAAET | not soluble |
| MRIAIIGSGCSGLTAIKNLLDAGLKEIICFEKSDQIGGNWVYTAAPSHSSVSEATHIISSKALSQFSDFPMPDDYPDYPSHQQILAYFQAYTRHFHLDHYIRFNTAVLRAEKIEKERWCLHLDDGTQAEFDYLLVANGHHSVPRHPDWKECFTGKYLHAHEYKTNQGLEGKRILVVGAGNSGCDCAVEASRVAARVDISLRSPQYIIPKFIMGRPTDTFAATFHWLPQSVQDGLQRISLRLQIGRYHDYALPEPDFSPTRAHPTINSALFDKIRHGKVHPRPGIQKVSGQTVYFADNATAQYDVLIAATGYKISFPFFDRDFLDWEEAAHIPLFLRIFHPDHPSLFFVGLIQPQGCIWPLAEIQARLIGQLLTNKIQLPLNWRKLALSEGRNRAQQFIARPRHSIEVHYYPYLKQLQRMIQGQIKLEHHHHHH | soluble |
